Biological target: response regulator PhoP of Mycobacterium tuberculosis (M. tuberculosis) (UniProt P71814)
Test: crystal structure

“response regulator PhoP of Mycobacterium tuberculosis (from UniProt P71814 1-247) (natural protein)” gave a stoichiometry N of 2.

— paper PMC4832192
